Data on one molecule can be found in PMC10627149 (Nature structural & molecular biology, 2023).

In the assay the target is T1, TSEN2 Y369A/H377A/K416A (endonuclease triple mutant in pCDNA3.1-TSEN2-Flag) (human, UniProt Q8NCE0 1-465, Y369A | H377A | K416A).
T1 sequence: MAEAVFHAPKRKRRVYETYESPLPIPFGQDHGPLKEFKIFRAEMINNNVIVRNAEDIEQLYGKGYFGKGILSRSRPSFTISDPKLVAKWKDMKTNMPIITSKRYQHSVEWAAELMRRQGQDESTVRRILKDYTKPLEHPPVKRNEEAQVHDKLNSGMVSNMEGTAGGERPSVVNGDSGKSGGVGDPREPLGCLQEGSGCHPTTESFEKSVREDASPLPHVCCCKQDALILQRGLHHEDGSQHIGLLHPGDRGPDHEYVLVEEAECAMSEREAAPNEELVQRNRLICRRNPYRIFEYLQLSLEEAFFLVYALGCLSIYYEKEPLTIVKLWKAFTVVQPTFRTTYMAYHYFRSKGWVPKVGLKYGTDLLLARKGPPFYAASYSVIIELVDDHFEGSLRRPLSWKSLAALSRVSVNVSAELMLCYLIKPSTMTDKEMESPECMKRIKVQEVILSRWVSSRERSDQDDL
Kind of assay: cryo-EM structure.

B1: TSEN15-Flag (pCDNA3.1-TSEN15-Flag) (natural protein, human)
chain: MEERGDSEPTPGCSGLGPGGVRGFGDGGGAPSWAPEDAWMGTHPKYLEMMELDIGDATQVYVAFLVYLDLMESKSWHEVNCVGLPELQLICLVGTEIEGEGLQTVVPTPITASLSHNRIREILKASRKLQGDPDLPMSFTLAIVESDSTIVYYKLTDGFMLPDPQNISLRR
For the molecule B1, the binding result was “binds”.
